{"source": "patent US20250092148A1", "about": "(Kyowa Kirin, published 2025)", "assay_in_all_cases": "flow cytometry, Fab 0.25 µg/mL on HEK-293T cells expressing the mutant", "key": {"[1]": {"molecular_target": "T1, human CD116 K213A (human, UniProt P15509 23-400)", "T1 construct": "whole, on cells", "T1 sequence (looked up)": "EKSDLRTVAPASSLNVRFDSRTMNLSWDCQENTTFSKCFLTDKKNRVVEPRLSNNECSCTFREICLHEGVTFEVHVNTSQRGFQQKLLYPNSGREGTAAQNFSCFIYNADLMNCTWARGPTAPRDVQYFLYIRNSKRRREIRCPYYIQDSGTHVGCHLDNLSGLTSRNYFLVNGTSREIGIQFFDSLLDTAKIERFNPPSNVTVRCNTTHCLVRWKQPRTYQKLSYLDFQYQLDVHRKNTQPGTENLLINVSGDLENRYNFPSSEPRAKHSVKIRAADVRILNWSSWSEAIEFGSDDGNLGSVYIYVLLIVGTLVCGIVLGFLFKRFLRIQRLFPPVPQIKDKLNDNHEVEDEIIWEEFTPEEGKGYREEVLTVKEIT"}, "[2]": {"molecular_target": "T2, human CD116 Y248A (human, UniProt P15509 23-400)", "T2 construct": "whole, on cells", "T2 sequence (looked up)": "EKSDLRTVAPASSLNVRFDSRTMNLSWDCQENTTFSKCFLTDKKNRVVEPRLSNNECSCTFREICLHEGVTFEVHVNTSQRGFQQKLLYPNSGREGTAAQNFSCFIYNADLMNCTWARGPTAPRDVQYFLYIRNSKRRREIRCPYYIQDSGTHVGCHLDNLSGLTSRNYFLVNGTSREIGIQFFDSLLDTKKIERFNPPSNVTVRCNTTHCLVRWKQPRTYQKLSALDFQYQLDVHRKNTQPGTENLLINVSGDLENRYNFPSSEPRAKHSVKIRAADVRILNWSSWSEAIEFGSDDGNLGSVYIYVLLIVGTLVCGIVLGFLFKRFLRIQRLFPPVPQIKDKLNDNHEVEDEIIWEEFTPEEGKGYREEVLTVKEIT"}, "[3]": {"molecular_target": "T3, human CD116 N156A (human, UniProt P15509 23-400)", "T3 construct": "whole, on cells", "T3 sequence (looked up)": "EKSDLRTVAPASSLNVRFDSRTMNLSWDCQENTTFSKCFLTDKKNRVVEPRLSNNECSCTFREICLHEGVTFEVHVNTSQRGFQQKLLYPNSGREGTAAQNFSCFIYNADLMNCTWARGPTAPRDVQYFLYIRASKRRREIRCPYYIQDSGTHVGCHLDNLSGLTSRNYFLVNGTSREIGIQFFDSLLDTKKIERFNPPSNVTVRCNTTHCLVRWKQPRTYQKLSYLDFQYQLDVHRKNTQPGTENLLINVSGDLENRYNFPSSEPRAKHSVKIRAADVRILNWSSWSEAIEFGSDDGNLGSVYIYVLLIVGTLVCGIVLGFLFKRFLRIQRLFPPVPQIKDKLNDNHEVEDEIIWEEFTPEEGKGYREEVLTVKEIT"}, "[4]": {"molecular_target": "T4, human CD116 D250A (human, UniProt P15509 23-400)", "T4 construct": "whole, on cells", "T4 sequence (looked up)": "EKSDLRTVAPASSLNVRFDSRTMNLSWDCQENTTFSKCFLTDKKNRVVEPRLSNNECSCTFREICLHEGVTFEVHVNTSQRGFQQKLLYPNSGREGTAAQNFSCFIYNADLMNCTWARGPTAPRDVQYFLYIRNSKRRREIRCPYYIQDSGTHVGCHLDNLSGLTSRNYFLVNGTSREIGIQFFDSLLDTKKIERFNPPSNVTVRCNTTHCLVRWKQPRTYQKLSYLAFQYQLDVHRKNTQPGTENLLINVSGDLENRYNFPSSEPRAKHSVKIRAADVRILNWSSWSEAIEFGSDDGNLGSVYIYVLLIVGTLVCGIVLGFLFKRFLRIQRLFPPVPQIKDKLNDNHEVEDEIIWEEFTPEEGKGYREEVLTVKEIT"}, "[5]": {"molecular_target": "T5, human CD116 F251A (human, UniProt P15509 23-400)", "T5 construct": "whole, on cells", "T5 sequence (looked up)": "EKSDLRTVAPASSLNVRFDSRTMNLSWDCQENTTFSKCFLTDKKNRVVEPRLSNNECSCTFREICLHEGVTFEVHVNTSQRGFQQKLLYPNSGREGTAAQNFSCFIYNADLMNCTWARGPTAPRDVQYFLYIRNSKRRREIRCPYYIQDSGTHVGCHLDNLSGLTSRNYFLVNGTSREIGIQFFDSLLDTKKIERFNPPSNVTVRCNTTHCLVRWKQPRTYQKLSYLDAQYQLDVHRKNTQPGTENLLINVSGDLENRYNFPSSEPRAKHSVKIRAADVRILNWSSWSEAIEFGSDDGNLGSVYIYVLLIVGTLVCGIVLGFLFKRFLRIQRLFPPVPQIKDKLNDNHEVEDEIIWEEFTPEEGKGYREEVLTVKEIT"}, "[6]": {"molecular_target": "T6, human CD116 L249A (human, UniProt P15509 23-400)", "T6 construct": "whole, on cells", "T6 sequence (looked up)": "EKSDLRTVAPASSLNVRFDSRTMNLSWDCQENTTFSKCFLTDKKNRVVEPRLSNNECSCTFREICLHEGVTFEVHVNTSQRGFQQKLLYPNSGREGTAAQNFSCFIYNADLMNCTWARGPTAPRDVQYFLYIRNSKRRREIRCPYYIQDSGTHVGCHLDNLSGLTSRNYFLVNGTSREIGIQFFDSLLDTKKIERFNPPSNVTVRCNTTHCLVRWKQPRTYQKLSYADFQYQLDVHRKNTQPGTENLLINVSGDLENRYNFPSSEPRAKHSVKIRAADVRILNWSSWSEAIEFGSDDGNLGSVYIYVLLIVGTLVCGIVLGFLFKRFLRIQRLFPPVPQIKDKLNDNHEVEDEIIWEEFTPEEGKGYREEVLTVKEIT"}}, "data": [{"binder": "anti-CD116 antibody 116-408, Fab (Fab, V domains shown) VH: EVQLVQSGAEVKKPGASVKVSCKVSGYTLTDLSMHWVRQAPGKGLEWMGGFDPEDGERIYAQKFQGRVTMTEDTSTDTAYMELSSLRSEDTAVYYCATGLFYYYYGMDVWGQGTMVTVSS VL: not shown", "values": [{"measurement": "Binding Reactivity (% WT)", "setting": "[1]", "result": 98.4, "unit": "% WT"}, {"measurement": "Binding Reactivity (% WT)", "setting": "[2]", "result": 78.2, "unit": "% WT"}, {"measurement": "Binding Reactivity (% WT)", "setting": "[3]", "result": 5.8, "unit": "% WT"}, {"measurement": "Binding Reactivity (% WT)", "setting": "[4]", "result": 95.8, "unit": "% WT"}, {"measurement": "Binding Reactivity (% WT)", "setting": "[5]", "result": 99.3, "unit": "% WT"}, {"measurement": "Binding Reactivity (% WT)", "setting": "[6]", "result": 92.4, "unit": "% WT"}]}]}
